Source: PMC10275869 (Nature Communications, 2023)

What was measured:
[1] = biological target: LayV F clamp2 (prefusion Langya virus fusion glycoprotein ectodomain stabilised with the clamp2 molecular … (Langya virus (GenBank UUV47205.1), stabilised, N-linked glycans at N65 and N459)); assay: ELISA; settings: both partners purified
[2] = biological target: T1, prefusion clamp2 stabilized NiV F (Nipah virus, strain  (Q9IH63 …, UniProt Q9IH63, stabilised)); assay: ELISA; settings: both partners purified
T1 construct: also called Nipah virus F

B1: 5B3 (human IgG1) (antibody, V domains shown)
VH: EVQLVESGGGLVKPGGSLKLSCAASGFTFSSYDMSWVRQTPEKRLEWVAMISSGGSYSYYPDSVKGRFTISRDNAKNTLYLQMSSLRSEDTAMYYCARQGDYAWFAYWGQGTLVTVSS
VL: DIQMTQSPASQSASLGESVTITCLASQTIGTWLAWYQQKPGKSPQLLIYAATSLADGVPSRFSGSGSGTKFSFKISSLQAEDFVSYYCQQFYSTPFTFGGGTKLEIK
[1]
  binding result: no binding (tested: 50 μg/mL)
[2]
  binding result: binds

B2: mAb66 (human IgG1) (antibody, V domains shown)
VH: ETGSGGGLVKPGGTLTLTCKASGFTLSSYWMCWVRQAPGKGLELIACLYTNGATTWYASWVNGRFAISRSTSRNTVDLNMTSLTAADTATYFCARGSGSGWSWFNIWGPGTLVTVSS
VL: TGVMTQTPASVEAAVGGTVTIKCQASQNIISSLAWYQQKPGQRPKLLIYYASTLASGVPSRFKGSGSGTQFTLTISDLECADAATYYCQSYYYSGITYGNAFGGGTEVVVK
[1]
  binding result: no binding (tested: 50 μg/mL)
[2]
  binding result: binds

B3: 1F5 (human IgG1) (antibody, V domains shown)
VH: DVQLQESGPGLVKPSQSLSLTCSVTGYSITSDYYWNWIRQFPGNKLEWMGYVTYDGSNNYNPSLKNRISITRDSSKNQFFLKLNSVISEDTATYYCARFGSSYWAMDYWGQGTSLTVSS
VL: QIVLTQSPAIMSASLGEAITLTCSASSSVSYMHWYQQKSGTSPKLLIYSTSNLASGVPSRFSGSGSGTFYSLTISSVEAEDAADYYCHQWYSYPWTFGGGTKLEIK
[1]
  binding result: no binding (tested: 50 μg/mL)
[2]
  binding result: binds

B4: 12B2 (human IgG1) (antibody, V domains shown)
VH: QVQLKESGPGLVAPSQSLSITCTVSGFSLASYGVHWVRQPPGKGLEWLGVIWTGGSTNYNSALMSRLSINRDNSKSQVFLKLNSLQTDDTAIYYCARDRGYGYGGFAYWGQGTLVTVSA
VL: DIQMTQSPASLSASVGETVTITCRASENIYSYLAWYQHKQGKSPQLLVYNAKSLAEGVPSRFSGSGSGTQFSLKINSLQPEDFGSYYCQHHYGTPWTFGGGTKLEIK
[1]
  binding result: no binding (tested: 50 μg/mL)
[2]
  binding result: binds
